Data as given in article PMC1557813 (Nucleic Acids Research, 2006).

B1: protG-P1-8 (P1-8 fused to the GB1 domain of streptococcal protein G) (peptide)
chain: SAAMGSAEFEALVALLFLSEE
B2: protG-P1-8 Phe9 to alanine (peptide)
chain: SAAMGSAEAEALVALLFLSEE
B3: protG-P1-1 (P1-1 fused to the GB1 domain of streptococcal protein G) (peptide)
chain: EGDWLFFVLLVGLL
B4: protG-P1-8 Val13 to alanine (peptide)
chain: SAAMGSAEFEALAALLFLSEE
B5: protG-P1-8 Leu12 to alanine (peptide)
chain: SAAMGSAEFEAAVALLFLSEE

The binders below were run against T1, GST–PAH1 (amino acids 34–108) (mouse (as mSin3b), UniProt Q62141 34-108) (assay: pull-down).
T1 sequence (looked up): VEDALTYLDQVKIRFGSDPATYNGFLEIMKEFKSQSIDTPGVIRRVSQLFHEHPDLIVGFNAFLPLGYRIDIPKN
B1: binds. B2: binds. B3: binds. B4: binds. B5: binds.
